{"source": "paper PMC3741918", "about": "(FEBS Open Bio, 2013)", "key": {"[1]": {"molecular_target": "human frataxin variant hFXN56–210 (human) (UniProt Q16595)", "assay": "SEC"}, "[2]": {"molecular_target": "T1, human frataxin variant hFXN56–210 (human, UniProt Q16595 56-210)", "T1 sequence (looked up)": "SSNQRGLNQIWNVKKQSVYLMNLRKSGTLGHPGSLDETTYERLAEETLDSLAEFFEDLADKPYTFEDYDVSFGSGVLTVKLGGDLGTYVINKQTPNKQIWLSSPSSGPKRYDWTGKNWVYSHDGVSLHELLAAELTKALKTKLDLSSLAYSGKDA", "assay": "aggregation assay"}}, "data": [{"molecule": "human frataxin variant hFXN56–210 (from UniProt Q16595 56-210) (domain or fragment)", "values": [{"measurement": "percent of the protein in the oligomeric state", "setting": "[1]", "result": 60, "unit": "%"}]}, {"molecule": "SSNQRGLNQIWNVKKQSVYLMNLRKS", "note": "[peptide hFXN56–81]", "values": [{"measurement": "binding result", "setting": "[2]", "result": "binds"}]}]}
